# Data: patent publication US20050113284A1, “Drug for regenerating tissue and vessel and method therefor” (priority 2001, published 2005)
# B1: clone No. 3-312: prey protein: C-terminal 89 amino acids (amino acids 995-1083 of SEQ ID NO: 4) of the human c-Met β chain (protein, listed as Homo sapiens)
# chain: LLQPEYCPDPLYEVMLKCWHPKAEMRPSFSELVSRISAIFSTFIGEHYVHVNATYVNVKCVAPYPSLLSSEDNADDEVDTRPASFWETS
# B2: clone No. 2-22: prey protein: C-terminal 93 amino acids (amino acids 411-503 of SEQ ID NO: 10) of human MERMUC (protein, listed as Homo sapiens)
# chain: SSRGTNSTLAKITTSAKTTMKPPTATPTTARTRPTTDVSAGENGGFLLLRLSVASPEDLTDPRVAERLMQQLHRELHAHAPHFQVSLLRVRRG
# B3: clone No. 3-309: prey protein: C-terminal 91 amino acids (amino acids 993-1083 of SEQ ID NO: 4) of the human c-Met β chain (protein, listed as Homo sapiens)
# chain: RRLLQPEYCPDPLYEVMLKCWHPKAEMRPSFSELVSRISAIFSTFIGEHYVHVNATYVNVKCVAPYPSLLSSEDNADDEVDTRPASFWETS
# B4: prey DNA B: c-Met prey protein, amino acids 1013-1083 of SEQ ID NO: 4 (protein, listed as Homo sapiens)
# chain: WHPKAEMRPSFSELVSRISAIFSTFIGEHYVHVNATYVNVKCVAPYPSLLSSEDNADDEVDTRPASFWETS
# B5: prey DNA F: c-Met prey protein, amino acids 993-1053 of SEQ ID NO: 4 (protein, listed as Homo sapiens)
# chain: RRLLQPEYCPDPLYEVMLKCWHPKAEMRPSFSELVSRISAIFSTFIGEHYVHVNATYVNVK
# B6: prey DNA E: c-Met prey protein, amino acids 993-1063 of SEQ ID NO: 4 (protein, listed as Homo sapiens)
# chain: RRLLQPEYCPDPLYEVMLKCWHPKAEMRPSFSELVSRISAIFSTFIGEHYVHVNATYVNVKCVAPYPSLLS
# B7: prey DNA C: c-Met prey protein, amino acids 1023-1083 of SEQ ID NO: 4 (protein, listed as Homo sapiens)
# chain: FSELVSRISAIFSTFIGEHYVHVNATYVNVKCVAPYPSLLSSEDNADDEVDTRPASFWETS
# B8: prey DNA A: c-Met prey protein, amino acids 1003-1083 of SEQ ID NO: 4 (protein, listed as Homo sapiens)
# chain: DPLYEVMLKCWHPKAEMRPSFSELVSRISAIFSTFIGEHYVHVNATYVNVKCVAPYPSLLSSEDNADDEVDTRPASFWETS
# B9: prey DNA D: c-Met prey protein, amino acids 993-1073 of SEQ ID NO: 4 (protein, listed as Homo sapiens)
# chain: RRLLQPEYCPDPLYEVMLKCWHPKAEMRPSFSELVSRISAIFSTFIGEHYVHVNATYVNVKCVAPYPSLLSSEDNADDEVD
# Tested on: C-terminal region of human MERMUC (bait-2, bait-3)
# Assay: Yeast two hybrid screening of human kidney cDNA library with MERMUC baits
# Type: binding
# Conditions: bait-2 = 123 amino acid portion of the C-terminus of human MERMUC
# Method: Specifically, yeast two hybrid system (Proc. Natl. Acad. Sci. USA., 1991, Vol.88, p.9578-9582) was performed to screen a human kidney cDNA library using cDNA corresponding to the C-terminal region of the human MERMUC as the bait (that is, fishing bait).
# Two kinds of bait (bait-2 and bait-3) were designed using each of Ex.-2 and Ex.-3 as the core. Bait-2 corresponds to a 123 amino acid portion of the C-terminus (bait-2) and bait-3 corresponds to the 65 C-terminal amino acids (bait-3).
# Each bait vector was obtained by inserting each DNA fragment obtained by digesting each of the PCR products with the restriction enzymes EcoRI and SalI into the EcoRI/SalI site of pGBKT7 vector (leucine biosynthesis gene as a marker; CLONTECH). In yeast, the gene within the vector is produced as a fusion protein ([fusion protein A]) with the DNA binding region (GAL4-DB) of the yeast transcription factor GAL4.
# On the other hand, each cDNA of the human kidney derived cDNA library (CLONTECH) that is used for the screening with the bait vector is inserted in pADK vector (tryptophan biosynthesis gene as a marker). Therefore, proteins produced through the expression of each of these cDNAs in yeast are produced as a fusion protein ([fusion protein B]) with the GAL4 transcriptional activation region (GAL4-AD).
# AH109 strain (leucine, tryptophan, histidine and adenine auxotrophic yeast; CLONTECH) was used as the yeast host. This yeast strain contains 3 types of genes (histidine biosynthesis gene, adenine biosynthesis gene and β-galactosidase gene) under the control of the GAL promoter on the chromosome.
# The function as a transcription factor is recovered through the fusion of GAL4-DB and GAL4-AD by the binding of the bait protein (the fusion protein A) with the prey protein (the fusion protein B).
# Each bait vector was introduced into yeast AH109 strain with the cDNA library plasmid mentioned above (50,000 clones per pool) by the polyethylene glycol/lithium acetate method for screening (J. Bacteriol., 1983, Vol. 153, p.163-16883; Curr. Genet., 1989, Vol. 16, p. 339-346; Nucleic Acids Res., 1991, Vol. 19, p. 5791; Nucleic Acids Res., 1992, Vol. 20, p.1425).
# The marker for the first selection of yeast with the desired transformation in the present screening was acquired histidine non-requirement due to the expression of the histidine biosynthesis gene. Therefore, after introducing the plasmid, yeast was cultured for 5 days at 30° C. in yeast minimum medium that lacks leucine, tryptophan and histidine (SD/-Leu,-Trp,-His) used for selecting transformants.
# Transformed yeast that grew on the plate upon cultivation were picked with toothpick and seeded on 3 kinds of plates described below, and then cultured for 5 days at 30° C. for a second selection of the desired clones: • <A> plate containing yeast minimum medium lacking leucine, tryptophan and histidine (SD/-Leu, -Trp, -His); • <B> plate containing yeast minimum medium lacking leucine, tryptophan and adenine (SD/-Leu, -Trp, -Ade); and • <C> plate containing yeast minimum medium lacking leucine and tryptophan, and supplemented with α-X-gal (20 ug/ml) (SD/-Leu, -Trp, +X-gal).
# Positive clones were identified as colonies growing on both of the above-mentioned <A> and <B> plates (acquirement of histidine and adenine non-requirement) and showing blue color on plate <C> (α-X-gal addition) (expression of β-galactosidase activity). Four prey cDNA clones (clones No. 3-309, No. 3-312, No. 2-22 and No. 2-211) were selected as positive.
row,binding ability to the protein derived from bait-2,Molecule
1,had binding ability,B1
2,had binding ability,B2
3,had binding ability,B3

# Same assay, conditions: bait-3 = 65 C-terminal amino acids of human MERMUC
row,binding ability to the protein derived from bait-3,Molecule
1,had binding ability,B1
2,had binding ability,B3

# Target: T1, MERMUC bait protein (Homo sapiens, UniProt Q8N307)
# T1 construct: Bait-2 corresponds to a 123 amino acid portion of the C-terminus (bait-2); expressed in transfected cells; host or cells: yeast AH109 strain (pGBKT7 bait vector)
# T1 sequence (Q8N307 587-709): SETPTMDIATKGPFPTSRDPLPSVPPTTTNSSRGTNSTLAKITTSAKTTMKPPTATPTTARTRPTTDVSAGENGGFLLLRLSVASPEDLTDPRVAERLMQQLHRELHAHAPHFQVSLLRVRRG
# Assay: Yeast two-hybrid binding of c-Met prey deletion proteins to MERMUC bait-2
# Conditions: yeast growth on SD/-Leu,-Trp,-His and SD/-Leu,-Trp,-Ade; human MERMUC bait-2
# Method: The present invention was performed using the reported yeast two-hybrid system (Proc. Natl. Acad. Sci. USA., 1991, Vol. 88, p.9578-9582) based on conventional method and the experimental protocols appended to the reagents.
# PCR was performed using DNA (clone No. 3-309) corresponding to the 91 amino acids (amino acids 993-1083 of SEQ ID NO: 4) of the C-terminal region of the human HGF receptor c-Met β chain that was identified in the previous Example to have the binding ability to the cytoplasmic region of human MERMUC as a template. Seven DNA fragments shown below corresponding to the C-terminal region of the c-Met β chain having various lengths, wherein various length of N-terminal or C-terminal amino acids are deleted from said 91 amino acids were prepared via a conventional method by PCR: • A. DNA corresponding to a region (amino acids 1003-1083 of SEQ ID NO: 4) that lacks the 10 N-terminal amino acids of the 91 amino acids of the C-terminal human c-Met β chain; • B. DNA corresponding to a region (amino acids 1013-1083 of SEQ ID NO: 4) that lacks the 20 N-terminal amino acids of the 91 amino acids of the C-terminal human c-Met β chain; • C. DNA corresponding to a region (amino acids 1023-1083 of SEQ ID NO: 4) that lacks the 30 N-terminal amino acids of the 91 amino acids of the C-terminal human c-Met β chain; • D. DNA corresponding to a region (amino acids 993-1073 of SEQ ID NO: 4) that lacks the C-terminal 10 amino acids of the 91 amino acids of the C-terminal human c-Met β chain; • E. DNA corresponding to a region (amino acids 993-1063 of SEQ ID NO: 4) that lacks the 20 C-terminal amino acids of the 91 amino acids of the C-terminal human c-Met β chain; • F. DNA corresponding to a region (amino acids 993-1053 of SEQ ID NO: 4) that lacks the 30 C-terminal amino acids of the 91 amino acids of the C-terminal human c-Met β chain; and • G. DNA corresponding to a region (amino acids 993-1043 of SEQ ID NO: 4) that lacks the 40 C-terminal amino acids of the 91 amino acids of the C-terminal human c-Met β chain.
# Furthermore, the forward and reverse primers used for the PCR were designed to contain an EcoRI site and SalI site at their 5′ end, respectively. Each of the DNA fragments prepared by PCR were inserted into the EcoRI/SalI site of pADKT7 vector (a vector for a prey protein that contains a tryptophan biosynthesis gene as a marker; CLONTECH) in frame with GAL4-AD to prepare prey vectors wherein each of the 7 DNAs described above is inserted.
# Each of the 7 prey vectors was cointroduced into yeast AH109 strain with the human MERMUC bait-2 vector prepared in Example 1.
# The binding activity between the c-Met prey proteins derived from the 7 DNA fragments and the MERMUC bait protein was analyzed by the yeast two-hybrid system described in Example 1. Specifically, the binding activity was evaluated based on the growth of yeast transformed with the vector on 2 kinds of yeast minimum media, i.e., (1) SD/-Leu, -Trp, -His media and (2) SD/-Leu, -Trp, -Ade media.
row,binding activity with MERMUC bait protein,Molecule
1,+ (bound) (+ (bound)),B4
2,+ (bound) (+ (bound)),B5
3,+ (bound) (+ (bound)),B6
4,− (no binding),B7
5,+ (bound) (+ (bound)),B8
6,+ (bound) (+ (bound)),B9
